“And” between values parts separate entries of the source, which are not always exact repeats. Equal entries are not always repeated. Where two headings read alike, the source gives them in different places.

The target in series [1] is MBP-IPAM C-ter (Chlamydia trachomatis serovar L2 (LGV 434/Bu)). Description: SEC + other: mass photometry.
Series [2] deals with MBP-InaC C-ter (Chlamydia trachomatis serovar L2 (LGV 434/Bu)). Description: SEC + other: mass photometry.
The target of series [3] is MBP-IncA C-ter (Chlamydia trachomatis serovar L2 (LGV 434/Bu)). Kind of series: SEC + other: mass photometry.
Series [4] concerns the molecule itself.
Series [5] deals with the molecule itself. Kind of series: SEC + other: mass photometry.

For the molecule MBP-IPAM C-ter (domain or fragment), the stoichiometry N in series [1] was 2 and 3.

As to MBP-InaC C-ter (domain or fragment), in series [2], the stoichiometry N is 2 and 3. Consider MBP-IncA C-ter (domain or fragment), for which, in series [3], the stoichiometry N worked out at 4.

B1: MBP-CpoS C-ter (domain or fragment)
chain: ARARSRRVEIERQLEVVSMQIEELEEEYKALSEVYRANLEARRAVSKYCQELEEKILDLCKRHAATICSIEEDAKQEIRHQTERFKQRLQQNQNTCSQLTAELCKLRSENKALSERLQVQASRRKK
Regarding B1, the “stoichiometry N” value is 2 in series [4]; 4 and 8 in series [5].

Broadly, the stoichiometry N is the number of molecules, sites or subunits per partner or assembly.
